# Measurements as given in patent publication US5989804, “E6 binding proteins” (New England Medical Center Hospitals, Inc., dated 1999).
# Molecular target: in vitro-translated 35S-labeled HPV16 E6 (human papillomavirus type 16, UniProt P03126, 35S-labeled cysteine or methionine)
# Experiment: GST pull-down of 35S-labeled in vitro-translated HPV-16 E6
binder,measurement,value
ILVEKDRFVNDYDKDNDGRLDPQELLPWVVPNNQGI (other) [GSTSD7EF5],binding result,no binding
